Experimental data published in patent US20250206836A1.

Target: C1q human protein (human) (UniProt P02745)
Test: ELISA, plates coated with the antibody, C1q human protein titrated (the concentration axis is that of C1q), Mean Absorbance (OD Units)

Sequence of C1q human protein (human) (P02745 23-245 limits assumed, chain 1 of 3): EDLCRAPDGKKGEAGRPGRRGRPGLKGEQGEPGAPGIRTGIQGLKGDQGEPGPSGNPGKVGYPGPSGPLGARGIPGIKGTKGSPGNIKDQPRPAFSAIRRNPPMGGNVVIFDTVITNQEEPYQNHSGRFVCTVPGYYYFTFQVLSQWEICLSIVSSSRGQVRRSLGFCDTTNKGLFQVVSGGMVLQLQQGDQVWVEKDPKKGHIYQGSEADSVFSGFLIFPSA
Sequence of C1q human protein (human) (P02746 28-253 limits assumed, chain 2 of 3, further chain): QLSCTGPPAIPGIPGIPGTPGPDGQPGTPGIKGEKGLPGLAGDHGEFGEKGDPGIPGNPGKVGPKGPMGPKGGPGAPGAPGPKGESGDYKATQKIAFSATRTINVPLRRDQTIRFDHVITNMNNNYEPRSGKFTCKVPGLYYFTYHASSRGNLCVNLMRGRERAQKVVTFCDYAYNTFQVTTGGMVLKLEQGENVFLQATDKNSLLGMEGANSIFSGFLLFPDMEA
Sequence of C1q human protein (human) (P02747 29-245 limits assumed, chain 3 of 3, further chain): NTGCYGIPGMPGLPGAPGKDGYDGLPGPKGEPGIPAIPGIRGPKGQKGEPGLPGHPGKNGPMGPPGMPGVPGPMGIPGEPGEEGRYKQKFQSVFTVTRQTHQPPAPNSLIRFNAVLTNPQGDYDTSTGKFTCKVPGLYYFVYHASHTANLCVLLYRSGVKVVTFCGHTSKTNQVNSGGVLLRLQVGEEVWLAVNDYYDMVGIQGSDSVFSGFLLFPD

**Q.** Which EC50 (read off the curve) does the source give for Remicade (pos. control) (antibody) here?
**A.** 20 µg/mL
